This test has as its target natural peanut extract. In words: ELISA, antigen-coated plate.

B1: h7G6 (antibody, V domains shown)
VH: QVQLVESGGGVVQPGRSLRLSCAASGIAFNDYTMHWVRRSPDKGLEWVAAISYGGTNKYYADSVKGRFTISRDSSKNTLFLQMDSLRVEDTAVYYCARDSGYRSLLHWGQGTLVTVSS
VL: EIVLTQSPLSLPVTPGEPASISCRSSQSLVHRNGYNYLDWYLQKPGQSPQLLIYMASKRASGVPDRFSGSGSGTEFTLKISRVEAEDVGIYYCMQALQTWTFGQGTKVEVN
As for B1, the half-maximal effective concentration (EC50) (in general, the midpoint of the concentration-response curve) came to 2.8 ng/mL.

B2: h37D5 (antibody, V domains shown)
VH: EEQLVESGGRLLRPGESLSLSCAAVGFNFGDFGMAWVRQPPGKGLEWVAGINWSGHSTGFVDSMKGRLTISRDSAKSSLFLQMNSLRGEDTAVYYCARVGRLCSGDICDSMGAFDLWGQGTMVTVSS
VL: DIQMTQSPSTLSASIGDRVTITCRASQTIDNWLAWYQQRPGKAPKLLIYQASSLQSGVSSRFRGSGSGTEFTLTITSLQPDDFATYYCQKSNGYSRTFGQGTKVEIK
For the molecule B2, the EC50 stood at 6.5 ng/mL.

B3: h12G10 (antibody, human IgG1, V domains shown)
VH: EVQLLESGGRLLRPGGSLSLSCVASGFYFGDFGMSWVRQVPGKGLEWVSGIDWSGRSTGYVDSMKGRLTISRDNDKSSLYLQMNDLRGEDTAVYYCARVGRLCSGDSCDSMGAFDLWGQGTMVTVSS
VL: DIQLTQSPSTLSASIGDSVTITCRASQNIDNWLAWYQQKPGKAPRLLIYKASSLGSGVSSKFRGSGFGTEFTLTITSLQPDDFATYYCQKSNGYSRTFGQGTKVDIK
Consider B3, for which the concentration for a half-maximal effect (EC50) stood at 8.1 ng/mL.

B4: hm12G10 (antibody, V domains shown)
VH: EVQLLESGGRLLRPGGSLSLSCVASGFYFGDFGMSWVRQVPGKGLEWVSGIDWSGRSTGYVDSMKGRLTISRDNDKSSLYLQMNDLRGEDTAVYYCARVGRLCSGDSCDSMGAFDLWGQGTMVTVSS
VL: DIQLTQSPSTLSASIGDSVTITCRASQNIDNWLAWYQQKPGKAPRLLIYKASSLGSGVSSKFRGSGFGTEFTLTITSLQPDDFATYYCQKSNGYSRTFGQGTKVDIK
As to B4, the half-maximal effective concentration (EC50) was found to be 8.5 ng/mL.

B5: hm37D5 (antibody, V domains shown)
VH: EEQLVESGGRLLRPGESLSLSCAAVGFNFGDFGMAWVRQPPGKGLEWVAGINWSGHSTGFVDSMKGRLTISRDSAKSSLFLQMNSLRGEDTAVYYCARVGRLCSGDICDSMGAFDLWGQGTMVTVSS
VL: DIQMTQSPSTLSASIGDRVTITCRASQTIDNWLAWYQQRPGKAPKLLIYQASSLQSGVSSRFRGSGSGTEFTLTITSLQPDDFATYYCQKSNGYSRTFGQGTKVEIK
Molecule B5 showed a concentration for a half-maximal effect (EC50) of 7.1 ng/mL.

B6: h32B10 (antibody, V domains shown)
VH: QVQLVQSGAEVKKPGASVKVSCRASGYIFRNFDINWVRQATGQGLEWMGWMSPKSGDTGYAQKFQGRVTMTRDTSINTAYMELSSLTSEDSAVYYCARGVDGTNWGQGTRVTVSS
VL: DIVMTQSPDSLGVSLGERATISCKSSQSILDNSNNKNFIAWFQQKPGQPPKLLIYWASARESGVPDRFSGSGSGTEFTLTINSLQAEDVAVYYCYQYYSTPHTFGQGTKLDLR
For the molecule B6, the 50% effective concentration (EC50) is 4.8 ng/mL.

B7: h2F8 (antibody, V domains shown)
VH: EVQLVESGGGLVKPGGSLRLSCAASGFIFSDYNMNWVRQAPGKGLEWVSSITRSSRTIYYADSVKGRFTISRDNAKNSLHLQMNSLRDADTAVYYCAREDFDVSTGPYYMDVWGNGTTVIVSS
VL: EIVLTQSPGTLSLSPGERATLSCRASQSVSNMFLVWYQQKPGQAPRLLMYGASTRATDIPDRFSGSGSGTDFTLTISRLEPEDFAVYYCQQNGNSPYTFGQGTKLEIK
The molecule B7 gave a 50% effective concentration (EC50) of 2.8 ng/mL. This EC50 lies about 1.7-fold lower than the previous one.

The record behind these values is patent US20200199207A1.
